The record followed here is article doi:10.1101/2020.09.10.287607 (bioRxiv, 2020).

What all share (test): in vitro binding assay
Assay [1] has as its target T1, recombinant human RSPO3 (Peprotech 120-44) (human, UniProt Q9BXY4 22-272).
T1 sequence (looked up): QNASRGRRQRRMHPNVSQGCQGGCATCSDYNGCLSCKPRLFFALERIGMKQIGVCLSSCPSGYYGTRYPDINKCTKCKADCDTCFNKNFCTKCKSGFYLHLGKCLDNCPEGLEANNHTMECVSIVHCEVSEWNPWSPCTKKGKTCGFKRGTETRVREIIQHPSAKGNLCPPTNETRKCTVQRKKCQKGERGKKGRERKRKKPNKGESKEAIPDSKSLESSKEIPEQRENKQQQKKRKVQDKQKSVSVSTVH

Assay [2] addresses T2, recombinant human RSPO2 (Peprotech 120-43) (human, UniProt Q6UXX9 22-243).
Assay [3] deals with T2, recombinant human RSPO2 (Peprotech …). The source holds these as a separate data set.

T2 sequence (Q6UXX9 22-243): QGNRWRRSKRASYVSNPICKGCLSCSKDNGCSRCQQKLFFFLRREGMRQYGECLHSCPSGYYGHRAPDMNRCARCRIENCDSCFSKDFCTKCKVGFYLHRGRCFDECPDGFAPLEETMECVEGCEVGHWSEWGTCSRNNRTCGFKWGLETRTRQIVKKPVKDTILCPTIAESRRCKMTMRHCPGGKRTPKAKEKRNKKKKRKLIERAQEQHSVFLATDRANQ

B1: recombinant human ZNRF3 Fc Chimera protein (R&D systems 7994-RF) (Fc fusion, UniProt Q9ULT6 56-219, looked up)
chain: KETAFVEVVLFESSPSGDYTTYTTGLTGRFSRAGATLSAEGEIVQMHPLGLCNNNDEEDLYEYGWVGVVKLEQPELDPKPCLTVLGKAKRAVQRGATAVIFDVSENPEAIDQLNQGSEDPLKRPVVYVKGADAIKLMNIVNKQKVARARIQHRPPRQPTEYFDM
As to B1, the binding result in assay [1] and in assay [2] was “binds” each time.

B2: BMPR1A^ECD-AP (domain or fragment, UniProt P36894 24-152, looked up)
chain: QNLDSMLHGTGMKSDSDQKKSENGVTLAPEDTLPFLKCYCSGHCPDDAINNTCITNGHCFAIIEEDDQGETTLASGCMKYEGSDFQCKDSPKAQLRRTIECCRTNLCNQYLQPTLPPVVIGPFFDGSIR
As a reminder, the Kd is the constant that tells how readily two partners part at equilibrium. With B2, in assay [3], the dissociation constant Kd is around 4.8 nM.
